Measured values: patent US20210032351A1 (XDCEXPLORER SHANGHAI, published 2021)
Ends that are not written are not given here. * marks the point of attachment. Biotin = O=C1N[C@H]2[C@H](CS[C@H]2CCCCC(=O)*)N1

Columns and labels:
Experiment in all cases: peptide dot matrix ELISA
pep01 = biological target: T1, pep01
T1 peptide: LEEKKGNYVVTDHGSCK(Biotin)

pep02 = biological target: T2, pep02
T2 peptide: EEKKGNYVVTDHGSCVK(Biotin)

pep03 = biological target: T3, pep03
T3 peptide: EKKGNYVVTDHGSCVRK(Biotin)

pep08 = biological target: T4, pep08 (cysteine pairing not given here)
T4 peptide: YVVTDHGSCVRACGADK(Biotin)

pep09 = biological target: T5, pep09 (cysteine pairing not given here)
T5 peptide: VVTDHGSCVRACGADSK(Biotin)

pep10 = biological target: T6, pep10 (cysteine pairing not given here)
T6 peptide: VTDHGSCVRACGADSYK(Biotin)

pep11 = biological target: T7, pep11 (cysteine pairing not given here)
T7 peptide: TDHGSCVRACGADSYEK(Biotin)

pep12 = biological target: T8, pep12 (cysteine pairing not given here)
T8 peptide: DHGSCVRACGADSYEMK(Biotin)

pep17 = biological target: T9, pep17
T9 peptide: VRACGADSYEMEEDGVK(Biotin)

pep19 = biological target: T10, pep19
T10 peptide: ACGADSYEMEEDGVRKK(Biotin)

pep22 = biological target: T11, pep22
T11 peptide: ADSYEMEEDGVRKCKKK(Biotin)

pep23 = biological target: T12, pep23 (cysteine pairing not given here)
T12 peptide: DSYEMEEDGVRKCKKCK(Biotin)

pep24 = biological target: T13, pep24 (cysteine pairing not given here)
T13 peptide: SYEMEEDGVRKCKKCEK(Biotin)

pep25 = biological target: T14, pep25 (cysteine pairing not given here)
T14 peptide: YEMEEDGVRKCKKCEGK(Biotin)

pep29 = biological target: T15, pep29 (cysteine pairing not given here)
T15 peptide: EDGVRKCKKCEGPCRKK(Biotin)

pep30 = biological target: T16, pep30 (cysteine pairing not given here)
T16 peptide: DGVRKCKKCEGPCRKVK(Biotin)

pep31 = biological target: T17, pep31 (cysteine pairing not given here)
T17 peptide: GVRKCKKCEGPCRKVCK(Biotin)

pep32 = biological target: T18, pep32 (cysteine pairing not given here)
T18 peptide: VRKCKKCEGPCRKVCNK(Biotin)

pep34 = biological target: T19, pep34 (cysteine pairing not given here)
T19 peptide: KCKKCEGPCRKVCNGIK(Biotin)

B1: Chimeric antibody 64F1 (antibody, V domains shown)
VH: QVQLQQSGAELARPGASVKMSCKASGYTFSSYTMHWAKQRPGQGLEWIGYINPSSGYTKYNQKFKDKATLTADKSSSTAYMQLSSLTSEDSIVYYCARGGGRGFAYWGQGTLVTVSA
VL: QIVLTQSPAIMSASPGERVTMTCSASSSVSYMYWYQQKPGSSPRLLIYDTSNLASGVPVRFSGSGSGTSYSLTISRVEAEDAATYYCQQWSSYSLTFGAGTKLELK
notes: also called 64F1F8 chimeric
ELISA signal (pep01): 0.05
ELISA signal (pep02): 0.05
ELISA signal (pep03): 0.05
ELISA signal (pep08): 0.05
ELISA signal (pep09): 0.05
ELISA signal (pep10): 0.05
ELISA signal (pep11): 0.05
ELISA signal (pep12): 0.05
ELISA signal (pep17): 0.05
ELISA signal (pep19): 0.05
ELISA signal (pep22): 0.08
ELISA signal (pep23): 0.07
ELISA signal (pep24): 0.06
ELISA signal (pep25): 0.06
ELISA signal (pep29): 0.06
ELISA signal (pep30): 0.06
ELISA signal (pep31): 0.06
ELISA signal (pep32): 0.06
ELISA signal (pep34): 0.07
